Test results from patent publication US20040087497.

Legend:
Suc-βAla-Leu-Ala-Leu-Dox = biological target: T1, Suc-βAla-Leu-Ala-Leu-Dox
T1 chain: XLAX

Suc-Leu-Ala-Gly-Dox = biological target: T2, Suc-Leu-Ala-Gly-Dox
T2 chain: XAX

B1: human CD10 (protein)
chain: GKSESQMDITDINTPKPKKKQRWTPLEISLSVLVLLLTIIAVTMIALYATYDDGICKSSDCIKSAARLIQNMDATTEPCTDFFKYACGGWLKRNVIPETSSRYGNFDILRDELEVVLKDVLQEPKTEDIVAVQKAKALYRSCINESAIDSRGGEPLLKLLPDIYGWPVATENWEQKYGASWTAEKAIAQLNSKYGKKVLINLFVGTDDKNSVNHVIHIDQPRLGLPSRDYYECTGIYKEACTAYVDFMISVARLIRQEERLPIDENQLALEMNKVMELEKEIANATAKPEDRNDPMLLYNKMTLAQIQNNFSLEINGKPFSWLNFTNEIMSTVNISITNEEDVVVYAPEYLTKLKPILTKYSARDLQNLMSWRFIMDLVSSLSRTYKESRNAFRKALYGTTSETATWRRCANYVNGNMENAVGRLYVEAAFAGESKHVVEDLIAQIREVFIQTLDDLTWMDAETKKRAEEKALAIKERIGYPDDIVSNDNKLNNEYLELNYKEDEYFENIIQNLKFSQSKQLKKLREKVDKDEWISGAAVVNAFYSSGRNQIVFPAGILQPPFFSAQQSNSLNYGGIGMVIGHEITHGFDDNGRNFNKDGDLVDWWTQQSASNFKEQSQCMVYQYGNFSWDLAGGQHLNGINTLGENIADNGGLGQAYRAYQNYIKKNGEEKLLPGLDLNHKQLFFLNFAQVWCGTYRPEYAVNSIKTDVHSPGNFRIIGTLQNSAEFSEAFHCRKNSYMNPEKKCRVW
For B1, the Percent Conversion/Hour to Leu-Dox, CD10 transfected CHO Clone 8 (Percent Conversion/Hour) (Suc-βAla-Leu-Ala-Leu-Dox) was 3, the conversion rate to Leu-Dox, CD10 transfected CHO Clone 8 (Suc-βAla-Leu-Ala-Leu-Dox) was 0.3 mM/h and the Percent Conversion/Hour to Gly-Dox, CD10 transfected CHO Clone 8 (Percent Conversion/Hour) (Suc-Leu-Ala-Gly-Dox) was 0.61. It also gave a conversion rate to Gly-Dox, CD10 transfected CHO Clone 8 (Suc-Leu-Ala-Gly-Dox) of 0.06 mM/h.
